In patent publication US20200283478A1 (Genentech, published 2020) one finds IC50 data, which are given here for 36 molecules.

Square brackets hold non-standard residues; d marks the D form. Ends that are not written are not given here. * marks the point of attachment. Trp(6-Br) = N[C@@H](Cc1c[nH]c2cc(Br)ccc12)C(=O)O; Trp(6-Cl) = N[C@@H](Cc1c[nH]c2cc(Cl)ccc12)C(=O)O; Trp(6-F) = N[C@@H](Cc1c[nH]c2cc(F)ccc12)C(=O)O; Trp(6-Me) = Cc1ccc2c(C[C@H](N)C(=O)O)c[nH]c2c1; hArg = N=C(N)NCCCC[C@H](N)C(=O)O; Pentanoyl = CCCCC(=O)*

B1: Compound 186 (peptide)
peptide: Pentanoyl-[Trp(6-Cl)]NLVRIGLTR-NH2
SMILES: CCCCC(=O)N[C@@H](Cc1c[nH]c2cc(Cl)ccc12)C(=O)N[C@@H](CC(N)=O)C(=O)N[C@@H](CC(C)C)C(=O)N[C@H](C(=O)N[C@@H](CCCNC(=N)N)C(=O)N[C@H](C(=O)NCC(=O)N[C@@H](CC(C)C)C(=O)N[C@H](C(=O)N[C@@H](CCCNC(=N)N)C(N)=O)[C@@H](C)O)[C@@H](C)CC)C(C)C
B2: Compound 155 (peptide)
peptide: Ac-DSYPGWNLVRIGLLR-NH2
B3: Compound 156 (peptide)
peptide: Ac-ESYPGWNLVRIGLLR-NH2
B4: Compound 130 (peptide)
peptide: WNLVRIGLLR
modifications: also: further groups not given here
notes: Structure printed only as a drawing
B5: Compound 146 (peptide)
peptide: WNLVRIGLLR
modifications: also: further groups not given here
notes: as for B4
B6: Compound 158 (peptide)
peptide: Ac-DLMPWNLKRIGLLR-NH2
B7: Compound 148 (peptide)
peptide: WNLVRIGLLR
modifications: also: further groups not given here
notes: as for B4
B8: Compound 141 (peptide)
peptide: WNLVRIGLLR
modifications: also: further groups not given here
notes: as for B4
B9: Compound 133 (peptide)
peptide: WNLVRIGLLR
modifications: also: further groups not given here
notes: as for B4
B10: Compound 154 (peptide)
peptide: Ac-SFAFPGWNLVRIGLLR-NH2
B11: Compound 139 (peptide)
peptide: WNLVRIGLLR
modifications: also: further groups not given here
notes: as for B4
B12: Compound 135 (peptide)
peptide: WNLVRIGLLR
modifications: also: further groups not given here
notes: as for B4
B13: Compound 142 (peptide)
peptide: WNLVRIGLLR
modifications: also: further groups not given here
notes: as for B4
B14: Compound 147 (peptide)
peptide: WNLVRIGLLR
modifications: also: further groups not given here
notes: as for B4
B15: Compound 145 (peptide)
peptide: WNLVRIGLLR
modifications: also: further groups not given here
notes: as for B4
B16: Compound 174 (peptide)
peptide: Pentanoyl-[Trp(6-F)]NLVRIGLTR-NH2
SMILES: CCCCC(=O)N[C@@H](Cc1c[nH]c2cc(F)ccc12)C(=O)N[C@@H](CC(N)=O)C(=O)N[C@@H](CC(C)C)C(=O)N[C@H](C(=O)N[C@@H](CCCNC(=N)N)C(=O)N[C@H](C(=O)NCC(=O)N[C@@H](CC(C)C)C(=O)N[C@H](C(=O)N[C@@H](CCCNC(=N)N)C(N)=O)[C@@H](C)O)[C@@H](C)CC)C(C)C
B17: Compound 136 (peptide)
peptide: WNLVRIGLLR
modifications: also: further groups not given here
notes: as for B4
B18: Compound 149 (peptide)
peptide: WNLVRIGLLR
modifications: also: further groups not given here
notes: as for B4
B19: Compound 187 (peptide)
peptide: Pentanoyl-[Trp(6-Br)]NLVRIGLTR-NH2
SMILES: CCCCC(=O)N[C@@H](Cc1c[nH]c2cc(Br)ccc12)C(=O)N[C@@H](CC(N)=O)C(=O)N[C@@H](CC(C)C)C(=O)N[C@H](C(=O)N[C@@H](CCCNC(=N)N)C(=O)N[C@H](C(=O)NCC(=O)N[C@@H](CC(C)C)C(=O)N[C@H](C(=O)N[C@@H](CCCNC(=N)N)C(N)=O)[C@@H](C)O)[C@@H](C)CC)C(C)C
B20: Compound 132 (peptide)
peptide: WNLVRIGLLR
modifications: also: further groups not given here
notes: as for B4
B21: Compound 134 (peptide)
peptide: WNLVRIGLLR
modifications: also: further groups not given here
notes: as for B4
B22: Compound 144 (peptide)
peptide: WNLVRIGLLR
modifications: also: further groups not given here
notes: as for B4
B23: Compound 143 (peptide)
peptide: WNLVRIGLLR
modifications: also: further groups not given here
notes: as for B4
B24: Compound 140 (peptide)
peptide: WNLVRIGLLR
modifications: also: further groups not given here
notes: as for B4
B25: Compound 175 (peptide)
peptide: Pentanoyl-[Trp(6-Me)]NLVRIGLTR-NH2
SMILES: CCCCC(=O)N[C@@H](Cc1c[nH]c2cc(C)ccc12)C(=O)N[C@@H](CC(N)=O)C(=O)N[C@@H](CC(C)C)C(=O)N[C@H](C(=O)N[C@@H](CCCNC(=N)N)C(=O)N[C@H](C(=O)NCC(=O)N[C@@H](CC(C)C)C(=O)N[C@H](C(=O)N[C@@H](CCCNC(=N)N)C(N)=O)[C@@H](C)O)[C@@H](C)CC)C(C)C
B26: Compound 138 (peptide)
peptide: WNLVRIGLLR
modifications: also: further groups not given here
notes: as for B4
B27: Compound 153 (peptide)
peptide: Ac-MDSFPGWNLVRIGLLR-NH2
B28: Compound 131 (peptide)
peptide: WNLVRIGLLR
modifications: also: further groups not given here
notes: as for B4
B29: Compound 191 (peptide)
peptide: Pentanoyl-WNLV[hArg]IGLLR-NH2
notes: also called n-BuC(O)-WNLV(homoR)IGLLR-NH2
B30: Compound 235 (peptide)
peptide: Pentanoyl-WNLV[hArg]IGLTR
notes: also called n-BuC(O)-WNLV(homoR)IGLTR
B31: Compound 234 (peptide)
peptide: Pentanoyl-WNLV[hArg]IGLTR-NH2
SMILES: CCCCC(=O)N[C@@H](Cc1c[nH]c2ccccc12)C(=O)N[C@@H](CC(N)=O)C(=O)N[C@@H](CC(C)C)C(=O)N[C@H](C(=O)N[C@@H](CCCCNC(=N)N)C(=O)N[C@H](C(=O)NCC(=O)N[C@@H](CC(C)C)C(=O)N[C@H](C(=O)N[C@@H](CCCNC(=N)N)C(N)=O)[C@@H](C)O)[C@@H](C)CC)C(C)C
notes: also called n-BuC(O)-WNLV(homoR)IGLTR-NH2
B32: Compound 150 (peptide)
peptide: WNLVRIGLLR
modifications: also: further groups not given here
notes: as for B4
B33: Compound 152 (peptide)
peptide: Pentanoyl-WNLVRIGLLR
B34: Compound 151 (peptide)
peptide: WNLVRIGLLR
modifications: also: further groups not given here
notes: as for B4
B35: Compound 160 (peptide)
peptide: Ac-DLMPWNLVRIGLPR-NH2
B36: Compound 137 (peptide)
peptide: WNLVRIGLLR
modifications: also: further groups not given here
notes: as for B4

T2 sequence (Q8NBP7 31-152, stated change not applied, chain 1 of 2): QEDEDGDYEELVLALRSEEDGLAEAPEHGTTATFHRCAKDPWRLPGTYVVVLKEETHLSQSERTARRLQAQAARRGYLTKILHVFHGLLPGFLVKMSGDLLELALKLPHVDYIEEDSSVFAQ
T2 sequence (Q8NBP7 other isoform, or with tags, fused parts or gaps mutant, chain 2 of 2): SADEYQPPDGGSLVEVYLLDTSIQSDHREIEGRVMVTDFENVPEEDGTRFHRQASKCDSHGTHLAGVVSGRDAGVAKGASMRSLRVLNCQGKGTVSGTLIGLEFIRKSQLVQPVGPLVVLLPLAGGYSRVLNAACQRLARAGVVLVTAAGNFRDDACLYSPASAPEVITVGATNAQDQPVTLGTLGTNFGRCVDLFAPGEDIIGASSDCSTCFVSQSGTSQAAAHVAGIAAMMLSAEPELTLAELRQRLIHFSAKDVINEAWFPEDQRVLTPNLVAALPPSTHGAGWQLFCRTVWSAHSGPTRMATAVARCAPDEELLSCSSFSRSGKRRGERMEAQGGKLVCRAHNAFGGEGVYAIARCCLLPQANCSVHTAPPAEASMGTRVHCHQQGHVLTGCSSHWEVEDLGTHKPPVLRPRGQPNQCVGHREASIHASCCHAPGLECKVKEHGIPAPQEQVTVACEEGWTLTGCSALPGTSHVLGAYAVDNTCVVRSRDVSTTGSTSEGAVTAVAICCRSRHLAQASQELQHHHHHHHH
T1 sequence (Q8NBP7 other isoform, or with tags, fused parts or gaps limits assumed): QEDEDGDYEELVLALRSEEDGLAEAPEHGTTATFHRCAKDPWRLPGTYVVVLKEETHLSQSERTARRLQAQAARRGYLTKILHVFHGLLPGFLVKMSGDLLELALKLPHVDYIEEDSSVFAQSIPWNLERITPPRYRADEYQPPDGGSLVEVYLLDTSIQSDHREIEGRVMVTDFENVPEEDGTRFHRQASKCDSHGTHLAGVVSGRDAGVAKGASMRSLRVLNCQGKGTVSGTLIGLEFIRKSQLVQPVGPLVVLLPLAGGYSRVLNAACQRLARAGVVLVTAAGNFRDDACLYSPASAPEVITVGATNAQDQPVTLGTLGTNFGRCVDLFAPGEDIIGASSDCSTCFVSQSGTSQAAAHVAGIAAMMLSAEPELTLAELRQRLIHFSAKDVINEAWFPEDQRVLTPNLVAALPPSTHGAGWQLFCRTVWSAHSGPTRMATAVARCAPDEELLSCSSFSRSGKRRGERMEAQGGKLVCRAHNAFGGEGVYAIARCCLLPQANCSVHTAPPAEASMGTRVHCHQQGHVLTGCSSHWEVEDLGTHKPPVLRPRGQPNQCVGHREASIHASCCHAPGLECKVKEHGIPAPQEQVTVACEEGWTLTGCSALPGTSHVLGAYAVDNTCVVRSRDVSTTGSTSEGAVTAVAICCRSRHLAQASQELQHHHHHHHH

The first assay has as its target T1, His-tagged, full-length PCSK9 (human, UniProt Q8NBP7 31-692).
T1 construct: The secreted protein is autocleaved into a prodomain and a catalytic/Cys-rich chain that starts at S153; also called His-PCSK9
Kind of assay: TR-FRET competition; His-PCSK9, competitor EGF(A)-Fc.
Molecule B1 returned an IC50 of 31 µM.
In turn, B2 gave an IC50 of 11 µM.
Consider B3, for which the IC50 is 11 µM.
In the case of B4, the IC50 was ≥ 50 µM.
B5 had a half-inhibitory concentration (IC50) of 11 µM.
Consider B6, for which the 50% inhibitory concentration (IC50) was ≥ 50 µM.
B7: the IC50 came out at 19 µM.
As for B8, the IC50 is ≥ 50 µM.
In the case of B9, the half-inhibitory concentration (IC50) was ≥ 50 µM.
In turn, B10 had an IC50 of 11 µM.
On to B11, for which the IC50 is ≥ 50 µM.
On to B12, for which the IC50 was ≥ 50 µM.
Turning to B13, the IC50 was ≥ 50 µM.
Regarding B14, the IC50 stood at 2.6 µM.
B15 had an IC50 of 7.3 µM.
For the molecule B16, the IC50 is ≥ 50 µM.
Turning to B17, the IC50 is ≥ 50 µM.
Consider B18, for which the IC50 was found to be 11 µM.
On the same count and under the same terms, the value for B19 was 26 µM; that for B20 was ≥ 50 µM; that for B21 was ≥ 50 µM.
B22 displayed an IC50 of 9.7 µM.
For B23, the IC50 was ≥ 50 µM.
On the same count and under the same terms, the value for B24 was ≥ 50 µM; that for B25 was ≥ 50 µM; that for B26 was 48 µM.
Same read-out and setting: the value for B27 was 12 µM.
In the case of B28, the concentration for half-maximal inhibition (IC50) is ≥ 50 µM.
On the same count and under the same terms, the value for B29 was ≥ 50 µM.
For B30, the IC50 was ≥ 50 µM.
Turning to B31, the concentration for half-maximal inhibition (IC50) was ≥ 50 µM.
Still for that read-out and setting: the value for B32 was 22 µM.
Turning to B33, the IC50 stood at 43 µM.
Turning to B34, the IC50 was found to be 6.9 µM.
For the molecule B35, the IC50 is ≥ 50 µM.
B36: the 50% inhibitory concentration (IC50) is ≥ 50 µM.

The next assay has as its target T2, His-tagged PCSK9Δhelix (human, UniProt Q8NBP7 31-152; Q8NBP7 168-692).
T2 construct: Construct M1-Q692 with engineered TEV site, cut by TEV protease; new N-terminus of the catalytic domain is S-A168; also called His-PCSK9Δhelix
Description: TR-FRET competition; His-PCSK9Δhelix, competitor Ab20.
The molecule B1 gave an IC50 of 11 µM.
Consider B2, for which the IC50 came out at 50 µM.
The molecule B3 gave an IC50 of 50 µM.
For the molecule B4, the IC50 stood at 8.6 µM.
Turning to B5, the IC50 worked out at 1.7 µM.
For B6, the IC50 is 12 µM.
The molecule B7 displayed a 50% inhibitory concentration (IC50) of 11 µM.
For B8, the IC50 stood at 36 µM.
Molecule B9 returned an IC50 of 17 µM.
B10 gave an IC50 of 50 µM.
Molecule B11 showed an IC50 of 19 µM.
B12 had an IC50 of 10 µM.
Same read-out and setting: the value for B13 was 15 µM; that for B14 was 0.41 µM.
B15 had a concentration for half-maximal inhibition (IC50) of 2.2 µM.
B16: the half-maximal inhibitory concentration (IC50) came to 6.2 µM.
Still for that read-out and setting: the value for B17 was 9 µM; that for B18 was 8.9 µM; that for B19 was 36 µM.
For the molecule B20, the IC50 came out at 9 µM.
B21 displayed an IC50 of 4.2 µM.
Still for that read-out and setting: the same measure for B22: 4 µM; for B23: 23 µM; for B24: 26 µM.
B25 registered an IC50 of 39 µM.
For the molecule B26, the IC50 was determined as 4.9 µM.
In the case of B27, the IC50 turned out to be 50 µM.
Molecule B28 had an IC50 of 6.7 µM.
B29 gave a concentration for half-maximal inhibition (IC50) of 1.3 µM.
In turn, B30 came in with a half-inhibitory concentration (IC50) of 2.7 µM.
In the case of B31, the IC50 is 1.4 µM.
Still for that read-out and setting: the value for B32 was 8.2 µM; that for B33 was 14 µM.
The same measure, in the same setting: the value for B34 was 2.5 µM; that for B35 was 19 µM.
In the case of B36, the IC50 amounted to 6.7 µM.
